Source: the nanobody polyreactivity screen of Harvey et al. (2022)

Assay: yeast display, Sf9 membrane polyspecificity reagent, FACS + sequencing; frameworks hold sequencing errors
How it was run: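 Galactose-induced (36–48 hours) yeast carrying a synthetic nanobody display library were exposed to 10% biotinylated, detergent-solubilized Sf9 membrane reagent at 4 °C for 1 hour. FACS followed streptavidin microbead enrichment, using low and high (top ~1%) gates for expression (anti-HA) and reagent binding (streptavidin). Colony PCR, MiSeq 2 × 250 sequencing and CDR-length filtering followed. Labels for polyreactivity reflect the gate of origin.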

Row | Sequence | polyreactivity (PSR sort gate)
1 | QVQLVESGGGLVQAGGSLRLSCAASGRTRGVNAMGWYSQAPGKERELVAAITRRGGSTSYADSVKGRFTISRDNEKNTVYLHMNSLKPEDTAVYYCAAGVIREKYYIWSDYEYDYWGQGTQVTVSS | low polyreactivity
2 | QVQLVESGGGLVQAGGSLRLICAASGRIFRINAMGWYRQAPGKEREFVAAISWRSGSTYYADSVKGRFTISRDNAKNSVYLQMNSLKPEDTAVYYCAAKLYGYRSGYYYWGQGTQVTVSS | high polyreactivity
3 | QVQLVESGGGLVQAGGSLRLICAASGRTFYYYAMGWYRQAPGKERELVAAISKDGGRTYYADSVKGRFTISRDNAKHTVYLQMKSLKPEDTAVYYCAARYSSSRGLSSEYWGQGTQVTVSS | high polyreactivity
4 | QVQLVESGGGLVQAGGSLRLSCAASGRSFYTNVMGWYRQAPGKERELVAAISSAGTTYYADSVKGRFTISRDNAKNTVYLQMNSLKPVDSEVYYCAADQVAYYGFDYWGQGTQVTVST | low polyreactivity
5 | QVQLVESGGGLVQAGGSLRLSCAASGSIFYRNAMGWYRQAPGKERELVAGITTRGGSTYYADSVKGRFTISRDNAKNTVYLQMNSLKPEDTAVYYCNKYYYYRDSGYWGQGTQVTVSS | high polyreactivity
6 | QVQLVESGGGLVQAGGSLRLRCAASGRLFQSNAMGWYIQAPGKERELVSGINSDTSTYYADSVKGRFTISRDNAKNTVYLKMNSLKPDDTAVYYCNAGWDTYYWQSTEFDYWGQGTQVTVSS | low polyreactivity
7 | QVQLVESGGGLVQAGGSLRLICAASGITTRTYAMGWYRQAPGKDRELVAAISDSGDRTYYADSVKGRFTISRDNAKNTVYLQMNRLKPEDTAVYYCAVDAPGPRCEFWGQGTKVTVSS | low polyreactivity
8 | QVQLVESGGGLVQAGGSLRLSCAASGYTFRFNAMGWYRQAPGKEREFVAAIDFGGAGTYYADSVKGRFTISRDNAKNTVYLQMNSLKPEDTAVYYCNARDGVTTEFDYWGQGTQVTVSS | low polyreactivity
9 | QVQLVESGGGLVQAGGSLRLSCAASGSTFGNAMGWYTQAPGKEREWVAAISSRGDRTYYADSVKGRFTISRDNAKNTGYLQMNSLKPEDTAVYYCAKDGYPNKYDYWGQGTQVTVSS | high polyreactivity
10 | QVQLLESGGGLVQAGGSLRLSCMASGSILGDRMSWYRQAPGKEHELVATIYDGGITYYADSMKGRFTISRDNAKNTVYLQMNSLRPEDTAVYYCGASFEGYGYHVYCGQGTQVTVSS | low polyreactivity
11 | QVQLVESGGGLVQAGGSLRLSCAASGSTFLWYAMGWYTQAPGKERELVATISGSGGSTYYADSVKGRFTISRDNAKNTVYLQMNSLKPEDTAGYYCAAGTLVQRSRWVTFSAYDGDYWGQGTQVTVSS | high polyreactivity
12 | QVQLVESGGGLVQAGGSLRLSCAASGRTFGKNAMGWYRQAPGKERELVAAISWSGGRTYYADSVKGRFTISRDNAKNTVYLQMNSLKPEDTAVYYCAAVRRRRNSYGYWGQGTQVNVSS | high polyreactivity
13 | QVQLVESGGGLVQAGGSLRLSCAASGSTFYPYAMGWYRQAPGKERELVAAITVSGGSTYYADSVKGRFTISRDNAKNTVYLQMNSLKPEDTAVYYCAVDGDPVFYTTYYYSYYYWGQGTQVTVSS | low polyreactivity
14 | QVHLVESGGGLVQAGGSLRLSCAASGSTFEQYAMGWYIQAPGKERELVAAISGSGTRTYYADSVKGRFTISRDNAKNTVYLQMNSLKPEDTAVYSCRTGSGEYDYWGQGTQVTVSS | high polyreactivity
15 | QVQLVESGGGLVQAGGSLRLSCAASGSIFSVNAMGWYRQAPGTEREFVASINFRGGRTYYADSVKGRFRISRDNAKNTVYLQMNCLKPEDTADYYCAAVITLTDTGYGPSFRVFYWGQGTQVTVSS | high polyreactivity
16 | QVQLVESGGGLVQAGGSLRLSCAASGSIFNLYALGWYRKAPGKERELVAAIRWDGGSTYYADSVKGRFTISRDNAKNTVYLQMNSLKPEDTAVYYCAAETVYFRLLILDYWGQGTQVTVSS | high polyreactivity
17 | QVQLVESGGGLVQAGGSLRLSCAASGSTFGWYAMGWYRQAPGKERELVAAIRRTGSTYYADSVKGRFTISRDNAKNTVYLQMNSLKPEDTAVYYCNAKYPLYLTGYDYWGQGTQVTVSS | low polyreactivity
